Results: publication PMC4267655, “Brr2p carboxy-terminal Sec63 domain modulates Prp16 splicing RNA helicase” (Nucleic Acids Research, 2014)

B1: m21; m1 Prp16p:R456K; Prp16p:G691R; Brr2 H2-Sec63-2:R1899G (protein)
chain: MGHSGREERIKDIFKELTSKELTPGLLLTLQKLAQKPNTNLEQFIASCKALTKLSSNNPIIFNELLELLKNKSEEDSTGPKKIAPSINKRKKFKIQLDLDDNEDELDSPVQKKPAPTRTLFKRIDKLKAKQLRQYSPTVKDPSPNSEQQTQNGHAETKDYEPTRSEVVEEDREWYDNDDDYGNLVPEPLSELPEEAKLLPVIRNIDNDDALRNTVQLYPIPLKQRMEWIPPFLSKFALENKVPTSIIIGSISETSSQVSALSMVNPFRNPDSEFSANAKRGSKLVALRRINMEHIQQSRDNTTVLNTAMGEVLGLENNNKAKDKSNQKICDDTALFTPSKDDIKHTKEQLPVFRCRSQLLSLIRENQVVVIIGETGSGKTTQLAQYLYEEGYANDRGKSIVVTQPRRVAAISVAKRVAMEMQVPLGKEVGYSIRFEDVTDSECTKLKFVTDGILLKETLLDDTLDKYSCVIIDEAHERSLNTDILLGFFKILLARRRDLKLIITSATMNAKKFSAFFGNAPQFTIPGRTFPVQTIYTSNPVQDYVEAAVSQAVKIHLANDCSSGDILIFMTGQEDIETTFDTLQEKFLQVYSKKFGTANFEEINDIEILPIYSALPADLQFKIFQDLHGTKRKIIIATNIAETSLTIKGIRYVIDCGYSKLKVYNPKIGLDSLVITPISKANADQRSGRARRTAPGTAYRLYTEDTFKEDMYLQTIPEIQRTNLSNTLLLLKSLDVTDELSKFPFIDKPPLQTFLSSLYELWFIGAIDTSGQLTPLGLQMAKFPLQPSLSKILLIAVRNGCSDEMLTIVSMLSVPQVFYRPKERQKEADIARNKFFIAKSDHLTLLNVFEQWRANNFSSHWCNKHFVQYKSLVRARDIRDQLLTILKSQKIPVISSGKDWDIIKKCICSGFAHQAAKITGLRNYVHLKTGVSVQLHPTSALHGLGDLPPYVVYHELLMTSKEYICCVTSVDPFWLMEYGGLLYDIKRIKNDQEATTTGLFGEHYEHTLDKVEDDIDINIRRCKDMRDSVIQELKMTDNSNKEDKKQKTKKQNILNGKENSMKPFKRRKPFF
B2: m21; m1 Prp16p:Q685H; Brr2 H2-Sec63-2:R1899G (protein)
chain: MGHSGREERIKDIFKELTSKELTPGLLLTLQKLAQKPNTNLEQFIASCKALTKLSSNNPIIFNELLELLKNKSEEDSTGPKKIAPSINKRKKFKIQLDLDDNEDELDSPVQKKPAPTRTLFKRIDKLKAKQLRQYSPTVKDPSPNSEQQTQNGHAETKDYEPTRSEVVEEDREWYDNDDDYGNLVPEPLSELPEEAKLLPVIRNIDNDDALRNTVQLYPIPLKQRMEWIPPFLSKFALENKVPTSIIIGSISETSSQVSALSMVNPFRNPDSEFSANAKRGSKLVALRRINMEHIQQSRDNTTVLNTAMGEVLGLENNNKAKDKSNQKICDDTALFTPSKDDIKHTKEQLPVFRCRSQLLSLIRENQVVVIIGETGSGKTTQLAQYLYEEGYANDRGKSIVVTQPRRVAAISVAKRVAMEMQVPLGKEVGYSIRFEDVTDSECTKLKFVTDGILLRETLLDDTLDKYSCVIIDEAHERSLNTDILLGFFKILLARRRDLKLIITSATMNAKKFSAFFGNAPQFTIPGRTFPVQTIYTSNPVQDYVEAAVSQAVKIHLANDCSSGDILIFMTGQEDIETTFDTLQEKFLQVYSKKFGTANFEEINDIEILPIYSALPADLQFKIFQDLHGTKRKIIIATNIAETSLTIKGIRYVIDCGYSKLKVYNPKIGLDSLVITPISKANADHRSGRAGRTAPGTAYRLYTEDTFKEDMYLQTIPEIQRTNLSNTLLLLKSLDVTDELSKFPFIDKPPLQTFLSSLYELWFIGAIDTSGQLTPLGLQMAKFPLQPSLSKILLIAVRNGCSDEMLTIVSMLSVPQVFYRPKERQKEADIARNKFFIAKSDHLTLLNVFEQWRANNFSSHWCNKHFVQYKSLVRARDIRDQLLTILKSQKIPVISSGKDWDIIKKCICSGFAHQAAKITGLRNYVHLKTGVSVQLHPTSALHGLGDLPPYVVYHELLMTSKEYICCVTSVDPFWLMEYGGLLYDIKRIKNDQEATTTGLFGEHYEHTLDKVEDDIDINIRRCKDMRDSVIQELKMTDNSNKEDKKQKTKKQNILNGKENSMKPFKRRKPFF
B3: m21; m1 Prp16p:R686I; Brr2 H2-Sec63-2:R1899G (protein)
chain: MGHSGREERIKDIFKELTSKELTPGLLLTLQKLAQKPNTNLEQFIASCKALTKLSSNNPIIFNELLELLKNKSEEDSTGPKKIAPSINKRKKFKIQLDLDDNEDELDSPVQKKPAPTRTLFKRIDKLKAKQLRQYSPTVKDPSPNSEQQTQNGHAETKDYEPTRSEVVEEDREWYDNDDDYGNLVPEPLSELPEEAKLLPVIRNIDNDDALRNTVQLYPIPLKQRMEWIPPFLSKFALENKVPTSIIIGSISETSSQVSALSMVNPFRNPDSEFSANAKRGSKLVALRRINMEHIQQSRDNTTVLNTAMGEVLGLENNNKAKDKSNQKICDDTALFTPSKDDIKHTKEQLPVFRCRSQLLSLIRENQVVVIIGETGSGKTTQLAQYLYEEGYANDRGKSIVVTQPRRVAAISVAKRVAMEMQVPLGKEVGYSIRFEDVTDSECTKLKFVTDGILLRETLLDDTLDKYSCVIIDEAHERSLNTDILLGFFKILLARRRDLKLIITSATMNAKKFSAFFGNAPQFTIPGRTFPVQTIYTSNPVQDYVEAAVSQAVKIHLANDCSSGDILIFMTGQEDIETTFDTLQEKFLQVYSKKFGTANFEEINDIEILPIYSALPADLQFKIFQDLHGTKRKIIIATNIAETSLTIKGIRYVIDCGYSKLKVYNPKIGLDSLVITPISKANADQISGRAGRTAPGTAYRLYTEDTFKEDMYLQTIPEIQRTNLSNTLLLLKSLDVTDELSKFPFIDKPPLQTFLSSLYELWFIGAIDTSGQLTPLGLQMAKFPLQPSLSKILLIAVRNGCSDEMLTIVSMLSVPQVFYRPKERQKEADIARNKFFIAKSDHLTLLNVFEQWRANNFSSHWCNKHFVQYKSLVRARDIRDQLLTILKSQKIPVISSGKDWDIIKKCICSGFAHQAAKITGLRNYVHLKTGVSVQLHPTSALHGLGDLPPYVVYHELLMTSKEYICCVTSVDPFWLMEYGGLLYDIKRIKNDQEATTTGLFGEHYEHTLDKVEDDIDINIRRCKDMRDSVIQELKMTDNSNKEDKKQKTKKQNILNGKENSMKPFKRRKPFF
B4: m21; m1 Prp16p:R686Q; Brr2 H2-Sec63-2:R1899G (protein)
chain: MGHSGREERIKDIFKELTSKELTPGLLLTLQKLAQKPNTNLEQFIASCKALTKLSSNNPIIFNELLELLKNKSEEDSTGPKKIAPSINKRKKFKIQLDLDDNEDELDSPVQKKPAPTRTLFKRIDKLKAKQLRQYSPTVKDPSPNSEQQTQNGHAETKDYEPTRSEVVEEDREWYDNDDDYGNLVPEPLSELPEEAKLLPVIRNIDNDDALRNTVQLYPIPLKQRMEWIPPFLSKFALENKVPTSIIIGSISETSSQVSALSMVNPFRNPDSEFSANAKRGSKLVALRRINMEHIQQSRDNTTVLNTAMGEVLGLENNNKAKDKSNQKICDDTALFTPSKDDIKHTKEQLPVFRCRSQLLSLIRENQVVVIIGETGSGKTTQLAQYLYEEGYANDRGKSIVVTQPRRVAAISVAKRVAMEMQVPLGKEVGYSIRFEDVTDSECTKLKFVTDGILLRETLLDDTLDKYSCVIIDEAHERSLNTDILLGFFKILLARRRDLKLIITSATMNAKKFSAFFGNAPQFTIPGRTFPVQTIYTSNPVQDYVEAAVSQAVKIHLANDCSSGDILIFMTGQEDIETTFDTLQEKFLQVYSKKFGTANFEEINDIEILPIYSALPADLQFKIFQDLHGTKRKIIIATNIAETSLTIKGIRYVIDCGYSKLKVYNPKIGLDSLVITPISKANADQQSGRAGRTAPGTAYRLYTEDTFKEDMYLQTIPEIQRTNLSNTLLLLKSLDVTDELSKFPFIDKPPLQTFLSSLYELWFIGAIDTSGQLTPLGLQMAKFPLQPSLSKILLIAVRNGCSDEMLTIVSMLSVPQVFYRPKERQKEADIARNKFFIAKSDHLTLLNVFEQWRANNFSSHWCNKHFVQYKSLVRARDIRDQLLTILKSQKIPVISSGKDWDIIKKCICSGFAHQAAKITGLRNYVHLKTGVSVQLHPTSALHGLGDLPPYVVYHELLMTSKEYICCVTSVDPFWLMEYGGLLYDIKRIKNDQEATTTGLFGEHYEHTLDKVEDDIDINIRRCKDMRDSVIQELKMTDNSNKEDKKQKTKKQNILNGKENSMKPFKRRKPFF
B5: m21; m1 Prp16p:D473E; Brr2 H2-Sec63-2:R1899G (protein)
chain: MGHSGREERIKDIFKELTSKELTPGLLLTLQKLAQKPNTNLEQFIASCKALTKLSSNNPIIFNELLELLKNKSEEDSTGPKKIAPSINKRKKFKIQLDLDDNEDELDSPVQKKPAPTRTLFKRIDKLKAKQLRQYSPTVKDPSPNSEQQTQNGHAETKDYEPTRSEVVEEDREWYDNDDDYGNLVPEPLSELPEEAKLLPVIRNIDNDDALRNTVQLYPIPLKQRMEWIPPFLSKFALENKVPTSIIIGSISETSSQVSALSMVNPFRNPDSEFSANAKRGSKLVALRRINMEHIQQSRDNTTVLNTAMGEVLGLENNNKAKDKSNQKICDDTALFTPSKDDIKHTKEQLPVFRCRSQLLSLIRENQVVVIIGETGSGKTTQLAQYLYEEGYANDRGKSIVVTQPRRVAAISVAKRVAMEMQVPLGKEVGYSIRFEDVTDSECTKLKFVTDGILLRETLLDDTLDKYSCVIIEEAHERSLNTDILLGFFKILLARRRDLKLIITSATMNAKKFSAFFGNAPQFTIPGRTFPVQTIYTSNPVQDYVEAAVSQAVKIHLANDCSSGDILIFMTGQEDIETTFDTLQEKFLQVYSKKFGTANFEEINDIEILPIYSALPADLQFKIFQDLHGTKRKIIIATNIAETSLTIKGIRYVIDCGYSKLKVYNPKIGLDSLVITPISKANADQRSGRAGRTAPGTAYRLYTEDTFKEDMYLQTIPEIQRTNLSNTLLLLKSLDVTDELSKFPFIDKPPLQTFLSSLYELWFIGAIDTSGQLTPLGLQMAKFPLQPSLSKILLIAVRNGCSDEMLTIVSMLSVPQVFYRPKERQKEADIARNKFFIAKSDHLTLLNVFEQWRANNFSSHWCNKHFVQYKSLVRARDIRDQLLTILKSQKIPVISSGKDWDIIKKCICSGFAHQAAKITGLRNYVHLKTGVSVQLHPTSALHGLGDLPPYVVYHELLMTSKEYICCVTSVDPFWLMEYGGLLYDIKRIKNDQEATTTGLFGEHYEHTLDKVEDDIDINIRRCKDMRDSVIQELKMTDNSNKEDKKQKTKKQNILNGKENSMKPFKRRKPFF

molecular target: Brr2 H2-Sec63-2p R1899G, Gal4AD-prey fusion, P32639; test: Y2H interaction assay; settings: chain shown with the change; growth on -LWH medium with 3-AT; parent: 50.0
Sequence (P32639 whole entry R1899G, the tested form may be a part): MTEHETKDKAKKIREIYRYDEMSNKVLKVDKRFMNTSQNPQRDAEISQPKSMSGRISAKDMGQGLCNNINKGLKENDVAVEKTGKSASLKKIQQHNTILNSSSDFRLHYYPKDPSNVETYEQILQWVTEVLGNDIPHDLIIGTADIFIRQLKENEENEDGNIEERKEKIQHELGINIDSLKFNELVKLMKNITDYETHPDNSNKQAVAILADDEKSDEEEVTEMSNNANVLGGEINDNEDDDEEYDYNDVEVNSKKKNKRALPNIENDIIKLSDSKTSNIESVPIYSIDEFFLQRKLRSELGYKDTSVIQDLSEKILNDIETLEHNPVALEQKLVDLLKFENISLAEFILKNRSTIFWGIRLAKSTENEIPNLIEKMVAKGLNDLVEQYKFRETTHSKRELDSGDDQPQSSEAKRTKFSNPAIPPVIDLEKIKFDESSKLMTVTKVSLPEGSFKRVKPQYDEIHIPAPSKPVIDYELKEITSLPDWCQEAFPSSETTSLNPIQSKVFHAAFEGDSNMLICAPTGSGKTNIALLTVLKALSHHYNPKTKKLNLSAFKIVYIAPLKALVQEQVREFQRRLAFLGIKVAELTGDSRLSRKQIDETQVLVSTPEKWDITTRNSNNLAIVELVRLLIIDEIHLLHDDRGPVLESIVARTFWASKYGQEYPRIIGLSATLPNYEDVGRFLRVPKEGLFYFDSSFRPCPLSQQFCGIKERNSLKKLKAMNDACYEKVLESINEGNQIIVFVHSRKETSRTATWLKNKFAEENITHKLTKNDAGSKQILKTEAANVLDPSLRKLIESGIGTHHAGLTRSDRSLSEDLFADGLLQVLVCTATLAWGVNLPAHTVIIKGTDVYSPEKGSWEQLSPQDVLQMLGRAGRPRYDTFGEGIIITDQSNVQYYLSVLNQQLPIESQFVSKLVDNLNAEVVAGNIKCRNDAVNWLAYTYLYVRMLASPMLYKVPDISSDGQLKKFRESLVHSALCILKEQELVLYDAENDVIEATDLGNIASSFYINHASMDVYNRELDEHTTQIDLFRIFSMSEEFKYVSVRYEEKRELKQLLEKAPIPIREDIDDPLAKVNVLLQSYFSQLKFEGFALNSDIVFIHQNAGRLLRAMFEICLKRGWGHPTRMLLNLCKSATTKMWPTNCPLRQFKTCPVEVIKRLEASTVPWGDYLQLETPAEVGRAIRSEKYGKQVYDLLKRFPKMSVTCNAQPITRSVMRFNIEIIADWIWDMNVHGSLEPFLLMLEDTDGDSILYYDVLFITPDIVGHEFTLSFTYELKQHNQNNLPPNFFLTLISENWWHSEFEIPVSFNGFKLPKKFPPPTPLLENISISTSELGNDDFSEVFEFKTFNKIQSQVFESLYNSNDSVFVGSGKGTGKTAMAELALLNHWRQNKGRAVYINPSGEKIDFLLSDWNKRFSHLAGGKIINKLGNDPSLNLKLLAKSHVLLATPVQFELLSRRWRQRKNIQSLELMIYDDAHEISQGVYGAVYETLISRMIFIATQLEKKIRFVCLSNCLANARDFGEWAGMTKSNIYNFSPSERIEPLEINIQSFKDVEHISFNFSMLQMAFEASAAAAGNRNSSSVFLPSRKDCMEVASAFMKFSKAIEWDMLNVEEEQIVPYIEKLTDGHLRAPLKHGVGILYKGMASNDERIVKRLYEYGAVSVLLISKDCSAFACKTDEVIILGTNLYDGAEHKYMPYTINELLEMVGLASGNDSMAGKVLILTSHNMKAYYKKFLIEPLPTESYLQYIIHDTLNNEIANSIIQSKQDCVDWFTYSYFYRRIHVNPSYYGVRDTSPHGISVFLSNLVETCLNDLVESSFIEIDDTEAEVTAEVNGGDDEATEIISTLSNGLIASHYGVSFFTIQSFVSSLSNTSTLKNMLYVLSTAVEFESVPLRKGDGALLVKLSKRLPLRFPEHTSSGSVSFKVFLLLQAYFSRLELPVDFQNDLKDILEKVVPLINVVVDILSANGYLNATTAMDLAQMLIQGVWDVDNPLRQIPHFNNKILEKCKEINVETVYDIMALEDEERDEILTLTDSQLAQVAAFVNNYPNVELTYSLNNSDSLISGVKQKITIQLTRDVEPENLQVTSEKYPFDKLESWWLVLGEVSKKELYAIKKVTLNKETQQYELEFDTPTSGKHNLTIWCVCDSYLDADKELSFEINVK

Question: Which other: maximal [3AT] tolerated does the source give for B1 here?
Answer: 0 mM

Question: For B2, which other: maximal [3AT] tolerated is on record?
Answer: 100 mM

Question: Which other: maximal [3AT] tolerated does the source give for B3 here?
Answer: 75 mM

Question: How did the other: maximal [3AT] tolerated turn out when B4 was run?
Answer: 50 mM

Question: With B5 as the binder, how does the other: maximal [3AT] tolerated read?
Answer: 10 mM
